The binders below were run against T1, VEGF165 (Homo sapiens, UniProt P15692-4 P15692-4:27-191) (assay: filter; 37 C). Details: tags: carrier-free, Sf 21 insect cell expressed, R & D Systems; chain copies: 2 (inferred).
Procedure: (§1) Nucleic Acid Ligands radiolabeled during transcription by incorporation of α-[³²P]-labeled NTPs, or after synthesis using γ-[³²P]-ATP and T4 polynucleotide kinase, were incubated in low concentration (between 20 and 70 pM) with varying concentrations of VEGF or other growth factors at 37° C. for 15 minutes. Incubations were in TBS, PBS, or HEPES-buffered saline (HBS), pH 7.4, with or without the addition of supplemental divalent cations. Samples were passed through prewashed 0.45 μ Type HA filters (Millipore) followed by a 5-10 ml wash with binding buffer. Filters were immersed in scintillant and counted to quantitate the amount of protein-bound RNA retained by each filter. The equilibrium dissociation constant (KD) of Nucleic Acid Ligand binding to a specific protein was calculated from the data points as described in Green et al. (1996) Biochem. 35: 14413-14424.
The shared primary and secondary structural motifs that define each sequence family hint at the minimal sequence elements required for high affinity binding to VEGF. Nested truncations of a representative ligand from each family (indicated by gray boxes in Table 2) were produced by chemical synthesis and their relative affinities for VEGF were determined (Table 3). Truncated versions of ligands VP30.22, VP30.2 and VT30.44 were prepared by chemical synthesis and their affinities for VEGF were determined as described in Example 3. Initial truncations (t22, t2, t44) were further refined by synthesis of oligonucleotides with additional bases lacking from the 5′ and/or 3′ ends. In order to initiate the chemical synthesis, the 3′-most nucleotide of several of the ligands was modified either by substitution of 2′-OH-cytidine for 2′-F-cytidine (underlined) or by addition of a 3′-3′-linked deoxythymidine “cap” (asterisks). The length of each oligonucleotide (minus the cap) and its high affinity KD for binding to VEGF are shown.

T1 sequence (P15692 other isoform, or with tags, fused parts or gaps): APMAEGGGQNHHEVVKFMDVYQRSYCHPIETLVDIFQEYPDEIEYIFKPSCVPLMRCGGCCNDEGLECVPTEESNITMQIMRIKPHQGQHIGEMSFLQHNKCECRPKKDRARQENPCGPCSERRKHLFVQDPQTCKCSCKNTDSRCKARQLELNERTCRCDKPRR

Row | Binder | Kd
1 | GACGAUGCGGUAGGAAGAAUUGGAAGCGC (ssRNA, 2'-F pyrimidines, N30 = 3'-3' inverted dT [30 = 3'-3' inverted dT; all C/U at 1-29 = 2'-F]) [t22] | 0.07 nM
2 | GACGAUGCGGUAGGAAGAAUUGGAAGCG (ssRNA, 2'-F pyrimidines) [t22a] | 3 nM
3 | ACGAUGCGGUAGGAAGAAUUGGAAGCGC (ssRNA, 2'-F pyrimidines except 2'-OH C28) [t22b] | 0.08 nM
4 | GCGGUAGGAAGAAUUGGAAGCGC (ssRNA, 2'-F pyrimidines except 2'-OH C23) [t22c] | 0.09 nM
5 | CGGUAGGAAGAAUUGGAAGCGC (ssRNA, 2'-F pyrimidines except 2'-OH C22) [t22d] | 0.1 nM
6 | GCGAACCGAUGGAAUUUUUGGACGCUCGC (ssRNA, 2'-F pyrimidines except 2'-OH C29) [t2a] | 0.04 nM
7 | CGAACCGAUGGAAUUUUUGGACGCUCG (ssRNA, 2'-F pyrimidines) [t2b] | 0.1 nM
8 | GAACCGAUGGAAUUUUUGGACGCUC (ssRNA, 2'-F pyrimidines, N26 = 3'-3' inverted dT [26 = 3'-3' inverted dT (N replaced by T); 2'-F pyrimidines at 4,5,8,13,14,15,16,17,21,23,24,25]) [t2c] | 0.2 nM
9 | AACCGAUGGAAUUUUUGGACGCU (ssRNA, 2'-F pyrimidines, N24 = 3'-3' inverted dT [24 = 3'-3' inverted dT (N replaced by T); 2'-F pyrimidines at 3,4,7,12,13,14,15,16,20,22,23]) [t2d] | 20 nM
10 | GCGGAAUCAGUGAAUGCUUAUACAUCCGC (ssRNA, 2'-F pyrimidines, N30 = 3'-3' inverted dT [30 = 3'-3' inverted dT (N replaced by T); 2'-F pyrimidines at 2,7,8,11,15,17,18,19,21,23,25,26,27,29]) [t44] | 0.01 nM
11 | CGGAAUCAGUGAAUGCUUAUACAUCCG (ssRNA, 2'-F pyrimidines) [t44a] | 0.01 nM
12 | GGAAUCAGUGAAUGCUUAUACAUCC (ssRNA, 2'-F pyrimidines except 2'-OH C25) [t44b] | 0.06 nM

Biological target: T1, VEGF165
Assay: filter; 37 C
Details: tags: carrier-free, Sf 21 insect cell expressed, R & D Systems; chain copies: 2 (inferred)
Remark: another data set of the same source
Procedure: as §1

Row | Binder | Kd
13 | VP30.6 (ssRNA, 2'-F pyrimidines) RNA: GGGAGGACGAUGCGGAACGGAAUUCUUGGAUACACACCUCGUCCUCAGACGACUCGCCCGA | 0.02 nM
14 | VP30.11 (ssRNA, 2'-F pyrimidines) RNA: GGGAGGACGAUGCGGUCAGGAACGGAAUUUUUGGAGACACGCCCUCAGACGACUCGCCCGA | 0.025 nM
15 | VP30.14 (ssRNA, 2'-F pyrimidines) RNA: GGGAGGACGAUGCGGACUGGGAGAAUCCGAAAAACCUUCACGCGUCAGACGACUCGCCCGA | 0.025 nM
16 | VP30.18 (ssRNA, 2'-F pyrimidines) RNA: GGGAGGACGAUGCGGAUCCAUCAUUUAACCGUUUGCUCUCCCCCUCAGACGACUCGCCCGA | 0.027 nM
17 | VP30.27 (ssRNA, 2'-F pyrimidines) RNA: GGGAGGACGAUGCGGAAGAAUUGGAUAUAUCGUUCACCCCCACCUCAGACGACUCGCCCGA | 0.4 nM
18 | VP30.20 (ssRNA, 2'-F pyrimidines) RNA: GGGAGGACGAUGCGGUUGAUCGGACGUUAGUCAUUUCCCGAUCGUCAGACGACUCGCCCGA | 0.057 nM
19 | VP30.23 (ssRNA, 2'-F pyrimidines) RNA: GGGAGGACGAUGCGGGAGCUUGAAGUUUCAGUAUUGGCACAACCUCAGACGACUCGCCCGA | 0.063 nM
20 | VP30.35 (ssRNA, 2'-F pyrimidines) RNA: GGGAGGACGAUGCGGUGAAUGAGCUGACGACCCUGAAUUGCUCGUCAGACGACUCGCCCGA | 0.006 nM
21 | VP30.48 (ssRNA, 2'-F pyrimidines) RNA: GGGAGGACGAUGCGGGAGCUUGAAGUUUCGGUAUUGGCACAACCUCAGACGACUCGCCCGA | > 10 nM
22 | VP30.58 (ssRNA, 2'-F pyrimidines) RNA: GGGAGGACGAUGCGGCAACUAUUCGUUGAUGUUUCCGUGAGCCGUCAGACGACUCGCCCGA | 0.006 nM
23 | VP30.61 (ssRNA, 2'-F pyrimidines) RNA: GGGAGGACGAUGCGGGAGCUUGAAGUUUCAGUACUGGCACAACCUCAGACGACUCGCCCGA | 0.043 nM
24 | VP30.63 (ssRNA, 2'-F pyrimidines) RNA: GGGAGGACGAUGCGGAACCAAUAGAGAUCUUCGGCUGCCCCGCGUCAGACGACUCGCCCGA | 0.016 nM
25 | VP30.65 (ssRNA, 2'-F pyrimidines) RNA: GGGAGGACGAUGCGGAAAACGCUUUUCUUGGCCCCCUCGUUGCGCCAGACGACUCGCCCGA | 0.033 nM
26 | VP30.67 (ssRNA, 2'-F pyrimidines) RNA: GGGAGGACGAUGCGGUUAACGGAAUUCUUGGAUACAUAGCAUGGUCAGACGACUCGCCCGA | 0.024 nM
27 | VP30.40 (ssRNA, 2'-F pyrimidines) RNA: GGGAGGACGAUGCGGAAACGGAAGAAUUGGAUACGCAAGCACGUUCAGACGACUCGCCCGA | 0.006 nM
28 | VP40.2 (ssRNA, 2'-F pyrimidines) RNA: GGGAGGACGAUGCGGAUCUGUGAACUGGGUUUUUGCCGACGGUUACGCUUUUGCUCAGACGACUCGCCCGA | 0.035 nM
29 | VP40.3 (ssRNA, 2'-F pyrimidines) RNA: GGGAGGACGAUGCGGCAAAAGUUUGAGUUGAUCUGAUACGUUUCAGUAUUGGCGUCAGACGACUCGCCCGA | 2 nM
30 | VP40.5 (ssRNA, 2'-F pyrimidines) RNA: GGGAGGACGAUGCGGUUGAUCGAGGUUCUAAAGCCUAUUUCCUGACUUUCUCCCCCAGACGACUCGCCCGA | 0.019 nM
31 | VP40.11 (ssRNA, 2'-F pyrimidines) RNA: GGGAGGACGAUGCGGAAGGAAGAUGUUGAUCGUUUGACGUGAUGUGGAUCCGCGUCAGACGACUCGCCCGA | 0.98 nM
32 | VP40.18 (ssRNA, 2'-F pyrimidines) RNA: GGGAGGACGAUGCGGUAGUAAGUUAUUGAAAGCGCAUCUCUAUCAACUCUCGGCCCAGACGACUCGCCCGA | 0.012 nM
33 | VP40.24 (ssRNA, 2'-F pyrimidines) RNA: GGGAGGACGAUGCGGGAUGCUGAGUGAGGAAGUCUGAUUGUUGCAGUAUUGGCGUCAGACGACUCGCCCGA | 5 nM
34 | VP40.25 (ssRNA, 2'-F pyrimidines) RNA: GGGAGGACGAUGCGGAAUGGAAUUUGAGUCGAUCUAGAAUGCGUCGUAUGGGCUCAGACGACUCGCCCGA | 0.74 nM
35 | VP40.26 (ssRNA, 2'-F pyrimidines) RNA: GGGAGGACGAUGCGGACUCAACUGGACGCUAUGUUGACGGUUAUCGCUUUUGGGUCAGACGACUCGCCCGA | 0.013 nM
36 | VP40.36 (ssRNA, 2'-F pyrimidines) RNA: GGGAGGACGAUGCGGCAGGUUCAGAAUUGGCAGUCGCAUUGAUCUUUUUCACCGCCAGACGACUCGCCCGA | 1.3 nM

Biological target: T1, VEGF165
Assay: filter; 37 C
Details: tags: carrier-free, Sf 21 insect cell expressed, R & D Systems; chain copies: 2 (inferred)
Remark: another data set of the same source
Procedure: as §1
Stabilization of oligonucleotides to nucleases is likely to be critical to their success as therapeutic or diagnostic agents. Unfortunately, 2′-OMe-modified nucleoside triphosphates are not generally accepted as substrates by RNA polymerases under standard reaction conditions. However, 2′-OMe purines may be introduced into a specific oligonucleotide by chemical synthesis. […] To identify those purine positions for which 2′-OMe substitution is compatible with high affinity binding to VEGF, several syntheses of ligands t2, t22 and t44 were prepared in which five or six purines at a time were partially substituted with the modified nucleotide (described in Example 3). Affinity selection of each partially substituted library was used to isolate those molecules that retained substantial affinity for VEGF.

Row | Binder | Kd
37 | GACGAUGCGGUAGGAAGAAUUGGAAGCGC (ssRNA, 2'-F pyrimidines, 2'-OMe purines except 2'-OH G10, A12, G22) [t22OMe (OH-10,12,22)] | 0.01 nM
38 | GACGAUGCGGUAGGAAGAAUUGGAAGCGC (ssRNA, 2'-F pyrimidines, 2'-OMe purines except 2'-OH G10, A12) [t22OMe (OH-10,12)] | 0.02 nM
39 | GACGAUGCGGUAGGAAGAAUUGGAAGCGC (ssRNA, 2'-F pyrimidines, 2'-OMe purines except 2'-OH G10, G22) [t22OMe (OH-10,22)] | 4 nM
40 | GACGAUGCGGUAGGAAGAAUUGGAAGCGC (ssRNA, 2'-F pyrimidines, 2'-OMe purines except 2'-OH A12, G22) [t22OMe (OH-12,22)] | 0.09 nM
41 | GGCGAACCGAUGGAAUUUUUGGACGCUCGCC (ssRNA, 2'-F pyrimidines, 2'-OMe purines except 2'-OH A6, G21) [t2OMe (OH-6,21)] | 0.06 nM
42 | GGCGAACCGAUGGAAUUUUUGGACGCUCGCC (ssRNA, 2'-F pyrimidines, 2'-OMe purines except 2'-OH A6) [t2OMe (OH-6)] | 0.5 nM
43 | GGCGAACCGAUGGAAUUUUUGGACGCUCGCC (ssRNA, 2'-F pyrimidines, 2'-OMe purines except 2'-OH G21) [t2OMe (OH-21)] | 20 nM
44 | GCGGAAUCAGUGAAUGCUUAUACAUCCGC (ssRNA, 2'-F pyrimidines, 2'-OMe purines except 2'-OH A5, A6) [t44OMe (OH-5,6)] | 0.04 nM

— patent US20030114404, “Vascular endothelial growth factor (VEGF) nucleic acid ligand complexes” (Gilead Sciences, Inc., published 2003)
